Measured values taken from PMC5059718, “Leukocyte trafficking-associated vascular adhesion protein 1 is expressed and functionally active in atherosclerotic plaques” (Scientific Reports, 2016).
Bridge positions count the residues as written; N and C are the ends. Peptide text beside a SMILES is read from it. * marks the point of attachment. DOTA = O=C(O)CN1CCN(CC(=O)O)CCN(CC(=O)*)CCN(CC(=O)O)CC1; AEEA = NCCOCCOCC(=O)O

How the values were obtained:
[1] = Body weight and plasma lipids after 4-week VAP-1 inhibitor treatment; format: in vivo, mouse (LDLR−/−ApoB100/100); settings: mean ± SD
Procedure: (§1) The second phase examined the role of VAP-1 in atherosclerotic plaques. Twenty-five LDLR^−/−ApoB^100/100 mice were treated with a VAP-1 inhibitor (LJP1586, Z-3-fluoro-2-(4-methoxybenzyl)allylamine hydrochloride; a kind gift from M. Linnik, La Jolla Pharmaceuticals, San Diego, CA, USA), or with saline. At the age of 2 months, mice were shifted to a high-fat diet for 2 months prior to the start of 4-week treatment, during which they were on normal chow. All mice were housed in an animal facility under standard conditions (12 h light/dark cycle) and allowed access to food and water ad libitum.
During the 4 week treatment period, LDLR^−/−ApoB^100/100 mice received thrice-weekly intraperitoneal (i.p.) injections of a small molecular VAP-1 inhibitor, LJP1586 (Z-3-fluoro-2-(4-methoxybenzyl)allylamine hydrochloride; 0.5 mg/mL diluted in PBS; a kind gift from M. Linnik, La Jolla Pharmaceuticals, San Diego, CA, USA) at a dose of 5 mg/kg. Mice injected with the physiological saline alone (200 μL) served as negative controls. After treatment, all mice were sacrificed and the hearts were collected, formalin-fixed, and paraffin-embedded. Tissues were then cut transversely into 5 μm sections at the level of the coronary ostia. The areas of intima and media were outlined in sections stained with Movat’s pentachrome, and the intima-to-media ratio for each mouse was determined with ImageJ as described previously. Adjacent sections were stained with an anti-mouse Mac-3 antibody to detect activated macrophages in the intima as described above. […]
Total cholesterol (CHOD-PAP 1489232 kit; Roche Diagnostics GmbH, Mannheim, Germany), choline-containing phospholipids (990–54009; Wako Chemicals GmbH, Neuss, Germany and/or Diagnostic Systems, Holzheim, Germany), and triglycerides (GPO-PAP 1488872 kit; Roche Diagnostics GmbH) were measured using fully enzymatic methods.

[2] = tested on: broad panel of receptors and enzymes, including monoamine oxidases A and B; settings: cited from earlier work
Excerpt: (§2) The adhesive function of VAP-1 can be inhibited by […]. Inhibiting VAP-1 reduces the migration of lymphocytes, granulocytes, and monocytes into inflamed tissues; it also reduces pathological angiogenesis in many animal models by abrogating monocyte/macrophage infiltration.

VAP-1 [3] = settings: mouse VAP-1; cited from earlier work
Excerpt: as §2

VAP-1 [4] = target: T1, VAP-1 (Mus musculus, UniProt O70423); assay: 4-week VAP-1 inhibitor treatment: plaque macrophages and intima-to-media ratio; format: in vivo, mouse (LDLR−/−ApoB100/100)
T1 construct: VAP-1 was expressed on endothelial cells lining inflamed atherosclerotic lesions; from tissue; host or cells: living mice (LDLR-/-ApoB100/100, Jackson strain #003000; C57BL/6N controls); aorta, atherosclerotic plaque endothelium, adipocytes
T1 sequence (O70423 1-765): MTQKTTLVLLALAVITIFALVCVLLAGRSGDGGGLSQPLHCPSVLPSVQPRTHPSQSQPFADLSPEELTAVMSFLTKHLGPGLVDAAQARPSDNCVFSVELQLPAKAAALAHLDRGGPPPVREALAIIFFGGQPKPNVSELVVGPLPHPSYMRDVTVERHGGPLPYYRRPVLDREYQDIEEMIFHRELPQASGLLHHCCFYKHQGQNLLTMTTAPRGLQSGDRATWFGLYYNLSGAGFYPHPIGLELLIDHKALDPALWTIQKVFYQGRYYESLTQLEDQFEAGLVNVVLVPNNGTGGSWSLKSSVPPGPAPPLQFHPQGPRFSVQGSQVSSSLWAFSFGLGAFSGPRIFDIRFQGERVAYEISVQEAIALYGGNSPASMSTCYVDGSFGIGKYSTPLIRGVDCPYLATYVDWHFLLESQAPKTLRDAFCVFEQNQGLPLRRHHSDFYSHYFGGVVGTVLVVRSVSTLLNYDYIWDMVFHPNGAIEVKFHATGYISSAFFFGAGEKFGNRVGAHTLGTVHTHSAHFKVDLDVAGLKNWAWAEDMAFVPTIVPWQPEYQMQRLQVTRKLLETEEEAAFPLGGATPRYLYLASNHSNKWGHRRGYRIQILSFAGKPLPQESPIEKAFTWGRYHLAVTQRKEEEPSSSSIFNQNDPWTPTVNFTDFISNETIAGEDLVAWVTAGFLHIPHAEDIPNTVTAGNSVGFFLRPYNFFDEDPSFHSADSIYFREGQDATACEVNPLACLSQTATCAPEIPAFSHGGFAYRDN
Procedure: as §1
During the 4 week treatment period, LDLR^−/−ApoB^100/100 mice received thrice-weekly intraperitoneal (i.p.) injections of a small molecular VAP-1 inhibitor, LJP1586 (Z-3-fluoro-2-(4-methoxybenzyl)allylamine hydrochloride; 0.5 mg/mL diluted in PBS; a kind gift from M. Linnik, La Jolla Pharmaceuticals, San Diego, CA, USA) at a dose of 5 mg/kg. Mice injected with the physiological saline alone (200 μL) served as negative controls. After treatment, all mice were sacrificed and the hearts were collected, formalin-fixed, and paraffin-embedded. Tissues were then cut transversely into 5 μm sections at the level of the coronary ostia. The areas of intima and media were outlined in sections stained with Movat’s pentachrome, and the intima-to-media ratio for each mouse was determined with ImageJ as described previously. Adjacent sections were stained with an anti-mouse Mac-3 antibody to detect activated macrophages in the intima as described above. Sections of aortic ostium were used to determine the area of plaque occupied by macrophages in each mouse because the ostium is easily located due to the presence of valves; it is therefore the most reliable place to compare plaque deposition in individual mice.

VAP-1 [5] = target: T1, VAP-1; parameters: species or system mouse (LDLR−/−ApoB100/100; C57BL/6N); settings: in vivo
Procedure: Mice (n = 5) then received an injection of [^68Ga]DOTA-Siglec-9 (22 ± 9 MBq) and were then subjected to subsequent ex vivo biodistribution and autoradiography analyses.
The distribution of [^68Ga]DOTA-Siglec-9 in the aorta was examined in more detail using autoradiography, as described previously. Briefly, after gamma counting, excised aortas were frozen in isopentane, and sequential longitudinal cryosections (20 and 8 μm) were cut using a cryomicrotome at −15 °C. Sections were then thaw-mounted onto microscope slides. […]
The 20 μm sections were stained with hematoxylin and eosin and scanned with a Pannoramic 250 Flash slide scanner (3DHISTECH Ltd.), and morphology was examined using Pannoramic Viewer 1.15 software (3DHISTECH Ltd.). After carefully superimposing the autoradiographs and hematoxylin-eosin staining images, the concentration of ^68Ga-radioactivity was measured in the following ROI: 1) plaques (excluding media); 2) normal vessel wall (no lesion formation); and 3) adventitia (mainly adipose tissue around the aorta). The results were expressed as count densities (photostimulated luminescence per square millimeter; PSL/mm^2) using Tina 2.1 software (Raytest Isotopemessgeräte GmbH, Straubenhardt, Germany). […] In total, […] (417 in plaques, 478 in normal vessel walls, and 347 in adventitia) were analyzed in 27 atherosclerotic and 20 control mice. […]

VAP-1 [6] = target: T1, VAP-1; assay: in vivo; parameters: species or system mouse (LDLR−/−ApoB100/100; C57BL/6N); settings: mouse
Procedure: (§3) Mice (LDLR^−/−ApoB^100/100, n = 22; C57BL/6N, n = 20) under isoflurane anesthesia were i.v. injected with [^68Ga]DOTA-Siglec-9 (19 ± 5 MBq). […] The thoracic aorta was excised and rinsed in saline to remove blood. Aorta, blood, heart, and femoral muscle were weighed, and radioactivity was measured in a gamma counter (Triathler 3″, Hidex, Turku, Finland). Hearts were preserved in formalin for further characterization of plaques in the aortic root. The ex vivo biodistribution results were expressed as a percentage of the injected radioactivity dose per gram of tissue (%IA/g). The radioactivity remaining in the tail was compensated for. […] Mice (n = 5) then received an injection of [^68Ga]DOTA-Siglec-9 (22 ± 9 MBq) and were then subjected to subsequent ex vivo biodistribution and autoradiography analyses.

VAP-1 [7] = tested on: T2, VAP-1; assay: in vivo; parameters: species or system mouse (LDLR−/−ApoB100/100; C57BL/6N); settings: total radioactivity
T2 construct: VAP-1 was expressed on endothelial cells lining inflamed atherosclerotic lesions; from tissue; host or cells: living mice (LDLR-/-ApoB100/100, Jackson strain #003000; C57BL/6N controls); aorta, atherosclerotic plaque endothelium, adipocytes
Procedure: as §3

Row | SMILES | Body weight ([1]; LJP1586-treated LDLR−/−ApoB100/100 mice (n = 15), P = 0.065 vs saline) | Weight, female ([1]; LJP1586 group, female LDLR−/−ApoB100/100 mice (n = 8)) | Weight, male ([1]; LJP1586 group, male LDLR−/−ApoB100/100 mice (n = 7)) | selectivity for VAP-1 [2] | IC50 (VAP-1 [3]) | reduction of Mac-3-positive macrophages in atherosclerotic plaques compared with the saline group (VAP-1 [4]; LJP1586 5 mg/kg i.p. thrice weekly for 4 weeks, P < 0.0001) | intima-media ratio (plaque size) (VAP-1 [4]; LJP1586 5 mg/kg i.p. thrice weekly for 4 weeks, n = 15, aortic ostium, mean ± SD (saline 1.5 ± 0.6; P = 0.15)) | areal percentage of the aortic plaque occupied by Mac-3-positive macrophages (VAP-1 [4]; LJP1586 5 mg/kg i.p. thrice weekly for 4 weeks, n = 15, aortic ostium, mean ± SD (saline 15% ± 5.1%)) | effect on plaque size, as determined by the intima-media ratio (VAP-1 [4]; LJP1586 for 4 weeks vs saline) | Plaque-to-adventitia ratio (autoradiography) (VAP-1 [5]) | Plaque-to-wall ratio (autoradiography) (VAP-1 [5]) | aorta-to-blood ratio on prolonging the accumulation time-point to 90 min (VAP-1 [6]) | aorta-to-muscle ratio (VAP-1 [6]) | aorta-to-muscle ratio with competition (VAP-1 [6]) | tissue uptake at 25 min (VAP-1 [7]; C57BL/6N, mouse, iv, uptake by the whole aorta) | tissue uptake at 25 min (VAP-1 [7]; LDLR−/−ApoB100/100, mouse, iv, radioactivity concentration in the blood) | tissue uptake at 25 min (VAP-1 [7]; LDLR−/−ApoB100/100, mouse, iv, uptake by the whole aorta) | tissue uptake at 25 min (VAP-1 [7]; LDLR−/−ApoB100/100, mouse, radioactivity concentration in the blood with competition) | tissue uptake at 25 min (VAP-1 [7]; LDLR−/−ApoB100/100, mouse, uptake by the whole aorta with competition)
1 | COc1ccc(C/C(=C/F)CN)cc1.Cl [LJP1586, Z-3-fluoro-2-(4-methoxybenzyl)allylamine hydrochloride] | 28 ± 4.5 g | 25 ± 1.9 g | 33 ± 1.7 g | has been confirmed | 4 nM | 46% | 1.9 ± 0.8 | 8.2% ± 3.5% | no effect |  |  |  |  |  |  |  |  |  | 
2 | CC(C)C[C@@H]1NC(=O)CNC(=O)[C@H](CCCNC(=N)N)NC(=O)[C@H](Cc2c[nH]c3ccccc23)NC(=O)[C@H](CO)NC(=O)[C@H](CC(C)C)NC(=O)[C@H](CO)NC(=O)[C@H](CC(C)C)NC(=O)[C@H](CCCNC(=N)N)NC(=O)[C@H](C)NC(=O)[C@@H](NC(=O)COCCOCCNC(=O)CN2CCN(CC(=O)O)CCN(CC(=O)O)CCN(CC(=O)O)CC2)CSSC[C@@H](C(=O)N2CCC[C@H]2C(=O)N[C@@H](CO)C(=O)N[C@@H](CCCCN)C(=O)O)NC(=O)[C@H](CC(C)C)NC(=O)[C@H]([C@@H](C)O)NC1=O [[^68Ga]DOTA-Siglec-9, metal not drawn] ({DOTA-AEEA}-CARLSLSWRGLTLCPSK-OH; disulfide 1-14) |  |  |  |  |  |  |  |  |  | 1.8 ± 0.35 P < 0.0001 | 2.1 ± 0.43 P < 0.0001 | did not improve | 1.7 ± 0.59 | 1.1 ± 0.38 | 0.46 ± 0.1 %ID/g | 3 ± 1.3 %ID/g | 0.83 ± 0.33 %ID/g | 2.6 ± 0.9 %ID/g | 0.48 ± 0.066 %ID/g
